Test results published in patent US20150174289A1 (OMRIX BIOPHARMACEUTICALS, published 2015).

Target: T1, fibrin monomers (UniProt P02671 36-629; P02675 45-491; P02679 27-437)
T1 sequence (looked up) 1: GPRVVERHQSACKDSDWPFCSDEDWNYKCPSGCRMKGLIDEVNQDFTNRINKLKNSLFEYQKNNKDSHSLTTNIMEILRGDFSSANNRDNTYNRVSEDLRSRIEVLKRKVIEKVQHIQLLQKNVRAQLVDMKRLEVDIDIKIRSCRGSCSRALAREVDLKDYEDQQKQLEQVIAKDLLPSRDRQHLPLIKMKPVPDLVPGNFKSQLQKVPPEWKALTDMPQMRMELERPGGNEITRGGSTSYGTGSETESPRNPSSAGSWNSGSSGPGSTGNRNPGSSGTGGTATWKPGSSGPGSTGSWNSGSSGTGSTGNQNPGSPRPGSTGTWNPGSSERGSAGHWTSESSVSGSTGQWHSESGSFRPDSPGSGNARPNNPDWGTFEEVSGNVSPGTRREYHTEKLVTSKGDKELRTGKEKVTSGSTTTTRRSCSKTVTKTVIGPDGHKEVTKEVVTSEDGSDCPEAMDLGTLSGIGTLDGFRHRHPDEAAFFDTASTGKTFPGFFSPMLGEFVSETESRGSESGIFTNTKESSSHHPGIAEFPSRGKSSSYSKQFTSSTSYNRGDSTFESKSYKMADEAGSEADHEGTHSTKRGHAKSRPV
T1 sequence (looked up) 2: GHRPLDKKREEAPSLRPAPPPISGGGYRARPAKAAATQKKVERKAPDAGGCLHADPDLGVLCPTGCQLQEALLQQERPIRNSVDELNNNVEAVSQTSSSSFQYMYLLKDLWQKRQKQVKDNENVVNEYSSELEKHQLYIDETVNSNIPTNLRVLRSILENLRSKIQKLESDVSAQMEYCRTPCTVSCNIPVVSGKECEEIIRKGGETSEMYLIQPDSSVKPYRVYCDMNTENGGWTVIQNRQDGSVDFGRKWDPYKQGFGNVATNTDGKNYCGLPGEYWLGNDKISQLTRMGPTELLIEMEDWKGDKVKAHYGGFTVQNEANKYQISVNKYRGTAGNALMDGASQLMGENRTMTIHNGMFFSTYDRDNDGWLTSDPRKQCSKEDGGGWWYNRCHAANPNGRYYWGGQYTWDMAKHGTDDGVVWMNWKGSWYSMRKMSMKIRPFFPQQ
T1 sequence (looked up) 3: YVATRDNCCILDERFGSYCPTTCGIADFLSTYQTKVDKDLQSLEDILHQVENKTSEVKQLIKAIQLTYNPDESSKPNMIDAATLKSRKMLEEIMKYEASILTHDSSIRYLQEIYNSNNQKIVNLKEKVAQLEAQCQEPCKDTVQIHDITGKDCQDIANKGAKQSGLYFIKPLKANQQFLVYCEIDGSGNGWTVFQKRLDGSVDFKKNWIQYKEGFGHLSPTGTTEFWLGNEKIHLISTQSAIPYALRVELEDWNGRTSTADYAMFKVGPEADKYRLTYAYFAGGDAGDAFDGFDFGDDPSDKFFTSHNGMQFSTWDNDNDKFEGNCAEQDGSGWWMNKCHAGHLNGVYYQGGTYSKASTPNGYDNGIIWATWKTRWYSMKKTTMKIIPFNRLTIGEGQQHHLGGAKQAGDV
Assay: cell-based or functional assay

Time to clot (1% fibrin monomers, 1 mM GPRP, 34 fold GPRP:fibrin): < 5 min
Time to clot (1% fibrin monomers, 5 mM GPRP, 170 fold GPRP:fibrin): 4 h
Time to clot (1.5% fibrin monomers, 20 mM GPRP, 453 fold GPRP:fibrin): > 2 weeks
Time to clot (3% fibrin monomers, 0.1 mM GPRP, 1.1 fold GPRP:fibrin): 5 s
Time to clot (3% fibrin monomers, 0.2 mM GPRP, 2.3 fold GPRP:fibrin): 7 s
Time to clot (3% fibrin monomers, 0.5 mM GPRP, 5.7 fold GPRP:fibrin): 11 s
Time to clot (3% fibrin monomers, 1 mM GPRP, 11.3 fold GPRP:fibrin): 13 s
Time to clot (3% fibrin monomers, 1.5 mM GPRP, 17 fold GPRP:fibrin): 22 s
Time to clot (3% fibrin monomers, 2 mM GPRP, 22.7 fold GPRP:fibrin): 28 s
Time to clot (3% fibrin monomers, 3 mM GPRP, 34 fold GPRP:fibrin): 2.5 min
Time to clot (3% fibrin monomers, 4 mM GPRP, 45 fold GPRP:fibrin): 8 min
Time to clot (3% fibrin monomers, 5 mM GPRP, 56.7 fold GPRP:fibrin): 15 min
Time to clot (3.5% fibrin monomers, 40 mM GPRP, 389 fold GPRP:fibrin): > 2 weeks
Binder: GPRP [GPRP peptide (Gly-Pro-Arg-Pro)]
